Source: patent publication US20160333075A1

B1: monoclonal antibody E18 produced by the hybridoma cell line EV18/4 (antibody, V domains shown)
VH: QIQLVQSGPELKKPGETVKISCKASGYTFTRYGMSWVKQAPGKGLKWMGWINTYSGVPTYADDFKGRFAFSLETSASTAYLQINNLKNEDTATYFCARRGYSNYYPMDFWGQGTSVTVSS
VL: DIKMTQSPSSMYASLGERVTITCKASQDIKSYLSWYQQKPWKSPKTLIYYAKNLADGVPSRFSGSGFGQDYSLTISSLESDDTATYYCLQHGESPYTFGSGTKLEIKR
B2: monoclonal antibody E20 produced by the hybridoma cell line EV20/5 (antibody, V domains shown)
VH: EVQLVESGGGLVKPGGSLKLSCAASGFTFNIYAMSWVRQTPEKRLEWVATISDGGSYTYYPDNVKGRFTISRDNAKNNLYLQMSHLKSEDTAMYYCVRDRGNYYSRAFPYAYWGQGTLVTVSA
VL: SIVMTQTPKFLPVSAGDRVTMTCKASQSVGNNVAWYQQKSGQSPKLLIYYASNRYTGVPDRFTGSGSGTDFTFTISSVQVEDLAVYFCQQHYSSPPTFGAGTKLELK

Target: enterovirus 71 (EV71) virions (enterovirus 71)
Test: cell-based or functional assay

Binder	Inhibitory concentration 50 (IC50), Vero ATCC	Inhibitory concentration 50 (IC50), Vero NIBSC	PRNT50 of original hybridoma	end point PRNT50, Vero ATCC	end point PRNT50, Vero NIBSC
B1	0.272 µg/mL	0.181 µg/mL	0.625 µl/ml	625 ng/mL	312 ng/mL
B2		9.95 µg/mL	5 µl/ml		10000 ng/mL
